# Assay results taken from publication PMC3795040.
# Legend:
# [1] = biological target: HA33 (full-length, residues M1–P293), expressed alone (Clostridium botulinum strain 62A (BoNT/A1-producing)) (UniProt P0DPR0); experiment: AUC
# [2] = biological target: HA70 of BoNT/A (full-length, residues M1–N626) (Clostridium botulinum strain 62A (BoNT/A1-producing)); experiment: AUC
# [3] = biological target: HA complex (HA70–HA17–HA33), recombinant, reconstituted in vitro (Clostridium botulinum strain 62A (BoNT/A1-producing)) (UniProt Q45871); experiment: […], pH 7.6 with 100 mM NaCl; […]
# [4] = biological target: mini-HA complex (HA70^D3–HA17–HA33) (Clostridium botulinum strain 62A (BoNT/A1-producing)) (UniProt Q45871); experiment: […], pH 7.6 with 100 mM NaCl; […]
substance,measurement,setting,value
"HA33 (full-length, residues M1–P293), expressed alone (from UniProt P0DPR0 1-286) (natural protein)",stoichiometry N,[1],2
"HA70 of BoNT/A (full-length, residues M1–N626) (natural protein)",stoichiometry N (HA70 chains in the oligomer),[2],3
"HA complex (HA70–HA17–HA33), recombinant, reconstituted in vitro (from UniProt Q45871 1-293)",Kd,[3],10.9 µM
mini-HA complex (HA70^D3–HA17–HA33) (from UniProt Q45871 1-293),Kd,[4],23.1 µM
